# Several values for one entry are separate records, joined by “and”; a condition that tells them apart may be missing. Equal values may be shown once.
# Tests used:
# [1] = molecular target: class II MHC antigens on antigen-presenting cells of human peripheral mononuclear cells
# [2] = molecular target: class II MHC antigens on antigen-presenting cells of human peripheral mononuclear cells; remark: listed apart in the source
# [3] = molecular target: HLA-DR on Raji cells (human); assay: antibody blocking of labelled peptide binding to Raji cells
# [4] = molecular target: class II MHC antigens on antigen-presenting cells of human peripheral mononuclear cells; remark: listed apart in the source
# [5] = molecular target: human class II MHC molecules on Raji cells; assay: competition with ^125 I-HIV-1 Nef(123-160) on Raji cells
# [6] = molecular target: human class II MHC molecules on Raji cells
# [7] = molecular target: murine class II MHC molecules on A20 cells (I-A^d and I-E^d)
# [8] = molecular target: murine class II MHC molecules on A20 cells (I-A^d and I-E^d); assay: dose-response competition with ^125 I-SEA on A20 cells
# [9] = molecular target: murine class II MHC molecules on A20 cells (I-A^d and I-E^d); assay: competition with ^125 I-MMTV ORF(76-119) on A20 cells
# [10] = molecular target: human class II MHC molecules on Raji cells; assay: competition with ^125 I-SEA on Raji cells
# [11] = molecular target: human class II MHC molecules on Raji cells; remark: listed apart in the source
# [12] = molecular target: DR1 on DR1-transfected L cells (Homo sapiens (Human)) (UniProt P01903)
substance,measurement,setting,value
HIV-1 Nef protein (from UniProt P03406) (ligand),stimulation index (SI) of proliferation of whole human PMNC,[1],26.4 SI
same,"IFNγ (U/ml) in supernatants of whole PMNC, 96 h",[2],1500 U/ml
"Clone L243, a monoclonal antibody specific for HLA-DR",percent reduction of ^125 I-HIV-1 Nef(123-160) binding,[3],35%
HIV-1 Nef(156-186) (peptide),stimulation index (SI) of human PMNC proliferation induced by Nef,[4],19.6 SI
same,stimulation index (SI) of human PMNC proliferation induced by SEA,[4],16.6 SI
SEE (from UniProt P12993) (ligand),IC50,[5],2 µM
HIV-1 Nef(123-160) (peptide),percent reduction of ^125 I-SEA binding,[6],20% and 40%
same,stimulation index (SI) of human PMNC proliferation induced by Nef,[4],3.9 SI
same,stimulation index (SI) of human PMNC proliferation induced by SEA,[4],6.2 SI
same,IC50,[5],30 µM
staphylococcal enterotoxin A (from UniProt P0A0L2) (ligand),stimulation index (SI) of proliferation of whole human PMNC,[1],164 SI
same,CPM bound in the absence of competitors,[7],6380 CPM
same,fold more effective a competitor than MMTV ORF(76-119),[8],20 times
same,"IFNγ (U/ml) in supernatants of whole PMNC, 72 h",[2],3000 U/ml
same,IC50,[9],1.8 µM
same,IC50,[10],0.2 µM
same,CPM bound in the absence of competitors,[11],31500 CPM
same,CPM bound in the absence of competitors,[12],5710 CPM

# — patent publication US5968514
